# Patent US9759725B2, “Treatment-induced damage to the tumor micro-environment promotes cancer therapy resistance through extracellular proteins” (Fred Hutchinson Cancer Research Center, priority 2012, dated 2017)
# Entries after “also recorded” stand apart in the source; their conditions may differ.
# B1: GDNF: glial cell line-derived neurotrophic factor, purified / human recombinant protein used to stimulate cells (protein)
# chain: SPDKQMAVLPRRERNRQAAAANPENSRGKGRRGQRGKNRGCVLTAIHLNVTDLGLGYETKEELIFRYCSGSCDAAETTYDKILKNLSRNRRLVSDKVGQACCRPIAFDDDLSFLDDNLVYHILRKHSAKRCGCI
# Experiments:
# Type in all cases: cell-based, human
# PSC27 fibroblasts = experiment: Induction of DDSP factors in PSC27 fibroblasts with mTOR inhibition before ionizing radiation; conditions: summary statement
# Experimental: The effects of inhibiting mTOR signaling in the context of genotoxic stress was evaluated. PSC27 fibroblasts were treated with Rapamycin (RAPA) prior to ionizing radiation.
# PSC27 stromal cells = experiment: SFK and Ras/Raf/Erk pathway activation in PSC27 stromal cells on GDNF stimulation
# Text: Stimulation of epithelial CaP cells with GDNF leads to the activation of the SFK and the Ras/Raf/Erk pathways (FIG. 25). To determine if the same pathways are involved in the pro-proliferative effect on the PSC27 stromal cells, PSC27 cells were stimulated with hrGDNF or conditioned medium from PSC27/iGDNF-V5 cells. […] Additional more downstream effector proteins potentially involved in these effects are also being examined.
# epithelial CaP cells [1] = experiment: Src/SFK and Erk pathway activation in CaP cells on GDNF stimulation; conditions: GDNF responsive cells
# Experimental: (§1) To study the effect GDNF has on tumor growth, we have used two experimental approaches have been used. 1) the effect of purified GDNF on cell proliferation of epithelial cells was analyzed and 2) GDNF over-expressing and secreting human prostate fibroblasts were generated which can also be used in co-culture and in vivo experiments. […] GDNF can act in the absence of RET via GFRA1 activating SFK pathways or through the activation of the RET/GFRA1 complex activating the Ras/Raf/Erk pathway. In our experiments we determined that both pathways were activated in GDNF sensitive cell lines (FIG. 23B). […] The number of epithelial cell lines are being expanded and analyzed after GDNF stimulation. GDNF-activated SFK and Erk pathways can lead to reduced sensitivity to pro-apoptotic treatments or decrease drug sensitivity.
# epithelial CaP cells [2] = experiment: Proliferation of epithelial CaP cells on GDNF stimulation
# Experimental: as §1
Molecule,suppression of key DDSP proteins including Wnt16B (PSC27 fibroblasts),Ras/Raf/Erk and SFK pathways in stromal cells (PSC27 stromal cells),Src (SFK) and Erk (Ras/Raf/Erk) pathways (epithelial CaP cells [1]),proliferation of Ret and GFRA1 negative cells (epithelial CaP cells [2]; after 3 or 5 days),GDNF concentration of maximum stimulation of proliferation (epithelial CaP cells [2]; in the culture medium),proliferation of cells expressing GDNF receptors Ret and/or GFRA1 (epithelial CaP cells [2]; increasing concentrations of GDNF)
CO[C@H]1C[C@@H]2CC[C@@H](C)[C@@](O)(O2)C(=O)C(=O)N2CCCC[C@H]2C(=O)O[C@H]([C@H](C)C[C@@H]2CC[C@@H](OCCO)[C@H](OC)C2)CC(=O)[C@H](C)/C=C(\C)[C@@H](O)[C@@H](OC)C(=O)[C@H](C)C[C@H](C)/C=C/C=C/C=C/1C [RAD001],effectively suppress,,,,,
B1,,stimulated; also recorded: activation,activated; also recorded: activation,did not show any increase in proliferation; also recorded: do not show any differences in proliferation,around 10 ng/ml,induced cell proliferation; also recorded: increased proliferation
